{
  "source": "patent US8106168B2",
  "about": "“Metalloproteinase binding proteins” (Dyax Corp., priority 2005, dated 2012)",
  "key": {"MMP14": {"biological_target": "T1, MMP14 (Mus musculus, UniProt P53690)", "T1 construct": "from tissue; host or cells: knee joints of C57Bl6 mice with SCW-induced arthritis (synovial cells, chondrocytes, macrophages)", "test": "Immunohistochemical staining in acute phase SCW-induced arthritis", "conditions": "7 days after first injection of SCW", "experimental": "Antigen-induced arthritis, a model of rheumatoid arthritis, was induced by intraarticular injection of Streptococcus cell wall (SCW, […]) into the knee joints of C57B16 mice at day 0, 7, 14 and 21.\nMMP14 expression in acute phase SCW-induced arthritis (7 days after the first injection of SCW) was examined by immunohistochemical staining using M0038-F01."}, "[1]": {"tested_on": "Human umbilical vascular endothelium cells (HUVECs)", "test": "HUVEC tube formation on […]", "assay_type": "cell-based", "conditions": "1 nM to 250 nM; 18 hours", "experimental": "Human umbilical vascular endothelium cells (HUVECs) were seeded into […]™ basement membrane extract-coated 96 well plates at 20,000 or 40,000 cells in 100 μl/well. The seeded cells were incubated for 30 minutes, then the various test articles were added (vehicle control, M0038-F01 at concentrations ranging from 1 nM to 250 nM, or suramin 8 mg/ml). The cells were incubated at 37° for 18 hours. 100 μl of calcein solution (8 μg/ml) was added 20 minutes prior to image capture. Tube lengths were also quantified."}, "MDA-MB-231-GFP tumors": {"tested_on": "MDA-MB-231-GFP tumors", "test": "MDA-MB-231-GFP orthotopic breast tumor growth and metastasis", "method": "Human breast cancer cells MDA-MB-231 cells transfected with green fluorescent protein (MDA-MB-231-GFP) were inoculated into the mammary fat pad of female BALB/c nu/nu mice with Matrigel. Animals were monitored for tumor growth, and at week 4-5 post tumor cell inoculation, animals with tumors of 30-50 mm^3 were selected, randomized and divided into experimental groups. […] Tumor volume was measured weekly, starting at week 5. Additionally, tissue samples of lung, liver, and spleen were taken to assess metastasis.\nAnimals were inoculated with MDA-MB-231-GFP cells as described above, then selected and randomized, and divided into experimental groups of 8 animals each. […] Tumor volume was measured weekly, starting at week 5.\nTumor tissue samples were collected on day 35 post-treatment for immunohistochemical analysis. Paraffin-embedded tissue samples were sectioned, stained with CD31 (Santa Cruz Biotechnology Inc., Santa Cruz, Calif., USA), Ki-67 (DAKO, Carpinteria, Calif., USA), MAPK, FAK, phosphoMAPK or phosphoFAK antibodies, visualized with biotinylated secondary antibodies using a VECTASTAIN® ABC (Vector Laboratories Inc., Burlingame, Calif., USA), and lightly counterstained with haemotoxylin."}, "[2]": {"tested_on": "B16F1 melanoma lung metastases", "test": "B16F1 melanoma metastasis model, tail vein injection", "assay_type": "in vivo, mouse", "conditions": "10 mg/kg Q2d IP, 14 days; lungs taken day 15", "experimental": "MMP-14 binding antibodies were also tested in a model of melanoma metastasis. B16F1 cells were grown in culture, harvested at 85% confluence and inoculated at 5×10^5 cells/mouse in 100 μl saline by tail vein injection. Treatment started on Day 1, post inoculation, for 14 days. […] On day 15, animals were sacrificed and lungs taken, fixed, and analyzed for the number of metastases (nodules)."}, "B16F1 melanoma tumors": {"tested_on": "B16F1 melanoma tumors", "test": "B16F1 melanoma subcutaneous tumor growth", "assay_type": "in vivo, mouse", "conditions": "M0038-F01 10, 1 or 0.1 mg/kg Q2d IP; doxorubicin 5 mg/kg weekly IP", "from_the_text": "B16F1 melanoma cells were implanted into Female C57/BL6 (CR) mice (4-6 Weeks old) mice by subcutaneous injection."}, "PC3 prostate tumors": {"tested_on": "PC3 prostate tumors", "test": "PC3 prostate tumor growth", "assay_type": "in vivo, mouse", "conditions": "M0038-F01 10, 1 or 0.1 mg/kg Q2d IP; taxotere 10 mg/kg weekly IP; A2 10 mg/kg Q2d", "from_the_text": "PC3 prostate cancer cells were implanted into male nude mice by subcutaneous injection."}, "[3]": {"conditions": "immunostaining of tumor tissue, day 35"}},
  "data": [
    {"molecule": "M0038-F01: human antibody (Fab, IgG) that binds and inhibits MMP-14; HC SEQ ID NO: 156, LC SEQ ID NO: 157 (antibody, V domains shown, Synthetically generated peptide) VH: EVQLLESGGGLVQPGGSLRLSCAASGFTFSLYSMNWVRQAPGKGLEWVSSIYSSGGSTLYADSVKGRFTISRDNSKNTLYLQMNSLRAEDTAVYYCARGRAFDIWGQGTMVTVSS VL: QDIQMTQSPSSLSAFVGDKVTITCRASQSVGTYLNWYQQKAGKAPELLIYATSNLRSGVPSRFSGSGSGTDFTLTINTLQPEDFATYYCQQSYSIPRFTFGPGTKVDIK", "values": [
      {"measurement": "immunohistochemical staining of joint tissue", "setting": "MMP14", "result": "strongly stained synovial cells and chondrocytes, as well as macrophages in joint exudate"},
      {"measurement": "tube formation", "setting": "[1]", "result": "dose-dependently inhibits tube formation"},
      {"measurement": "metastases to spleen", "setting": "MDA-MB-231-GFP tumors; M0038-F01 10 mg/kg Q2d IP, DOX 5 mg/kg weekly IP", "result": "reduced in DOX and M0038-F01 treated animals, but the difference was not statistically significant"},
      {"measurement": "lung and liver metastases", "setting": "MDA-MB-231-GFP tumors; M0038-F01 10 mg/kg Q2d IP, DOX 5 mg/kg weekly IP, compared to controls", "result": "statistically significant reduction"},
      {"measurement": "tumor growth (tumor volume), dose-ranging experiment", "setting": "MDA-MB-231-GFP tumors; M0038-F01 0.1, 1 or 10 mg/kg Q2d IP for 5 weeks, A2 10 mg/kg", "result": "reduced in all M0038-F01 treated animals, with the 10 mg/kg dose being most effective, followed by the 1 mg/kg and 0.1 mg/kg doses"},
      {"measurement": "tumor growth (tumor volume)", "setting": "MDA-MB-231-GFP tumors; M0038-F01 or A2 10 mg/kg Q2d IP, DOX 5 mg/kg weekly IP, five weeks", "result": "substantially inhibited"},
      {"measurement": "CD31 and KI67 levels compared to vehicle and A2 controls", "setting": "MDA-MB-231-GFP tumors; [3]", "result": "statistically significant (p<0.05) reductions"},
      {"measurement": "phospho-FAK level", "setting": "MDA-MB-231-GFP tumors; [3]", "result": "4±1.2", "unit": "A.U."},
      {"measurement": "phospho-MAP kinase level", "setting": "MDA-MB-231-GFP tumors; [3]", "result": "2.4±0.7", "unit": "A.U."},
      {"measurement": "total MAP kinase and FAK levels", "setting": "MDA-MB-231-GFP tumors; immunostaining of tumor tissue, day 35, versus control tumors", "result": "essentially the same as in control tumors"},
      {"measurement": "Ki67", "setting": "MDA-MB-231-GFP tumors; immunostaining of tumor tissue, day 35 post-treatment, image analysis", "result": "2.4 ± 1.2"},
      {"measurement": "number of lung melanoma tumors (nodules)", "setting": "[2]", "result": "substantially reduced the number of lung melanoma tumors"},
      {"measurement": "tumor growth", "setting": "B16F1 melanoma tumors", "result": "effective in reducing tumor growth"},
      {"measurement": "tumor growth (tumor volume)", "setting": "PC3 prostate tumors", "result": "reduced in all M0038-F01 treated animals, with the 10 mg/kg dose being most effective, followed by the 1 mg/kg and 0.1 mg/kg doses"}
    ]}
  ]
}
